According to patent US5834597:
Each block holds one molecule with its values, some of them ahead of it.

Legend:
[1] = biological target: FcRII
[2] = biological target: human CD3 antigen on T cells (human); assay: flow cytometry competition on human T cells, FITC-conjugated murine OKT3 as tracer
[3] = biological target: human CD3 antigen on T cells (human); assay: competition with 125I-labelled mouse M291 on IL-2-activated human T cells, method of Berzofsky and Berkower

- specific lysis of 51Cr-labeled K562 cells by retargeted T cell blasts (reverse lysis) [1]: < 32%
- avidity, fold compared to that of the chimeric IgG1 [2]: 2 to 3 fold
Molecule: chimeric OKT3 IgG2 (from UniProt P01859-1) (antibody)

- Ka [3]: 1.6e+09 M⁻¹
Molecule: humanized M291 IgG1 (from UniProt P01857-1) (antibody)

- Ka [3]: 1.6e+09 M⁻¹
B1: mouse M291 antibody (antibody, V domains shown)
VH: QVQLQQSGAELARPGASVKMSCKASGYTFISYTMHWVKQRPGQGLEWIGYINPRSGYTHYNQKLKDKATLTADKSSSSAYMQLSSLTSEDSAVYYCARSAYYDYDGFAYWGQGTLVTVSA
VL: QIVLTQSPAIMSASPGEKVTMTCSASSSVSYMNWYKQKSGTSPKRWTYDTSKLASGVPARFSGSGSGTSYSLTISSMEAEDAATYYCQQWSSNPPTFGSGTKLEIK
